Experimental data taken from patent US20250152704A1 (PARAGON THERAPEUTICS, published 2025).

Tests used:
[1] = molecular target: T1, Recombinant in-house Human FcRn protein (human, UniProt P55899 24-297; P61769 21-119, limits assumed); assay: competitive binding ELISA, pH 6.0; competitor Efgartigimod (Fc Fragment 1)
T1 construct: also called huFCRN; HuFcRn

cynomolgus monkey FcRn [2] = molecular target: T2, cynomolgus monkey FcRn (cynomolgus monkey, UniProt Q8SPV9 24-297; Q8SPW0 21-119, limits assumed); assay: SPR, pH 7.4
T2 construct: also called cynoFcRn

[3] = molecular target: T1, Recombinant in-house Human FcRn protein; assay: SPR, pH 7.4
rat FcRn [4] = molecular target: T3, rat FcRn (rat, UniProt P13599 23-298; P07151 21-119, limits assumed); assay: SPR, pH 7.4
T3 sequence (looked up) 1: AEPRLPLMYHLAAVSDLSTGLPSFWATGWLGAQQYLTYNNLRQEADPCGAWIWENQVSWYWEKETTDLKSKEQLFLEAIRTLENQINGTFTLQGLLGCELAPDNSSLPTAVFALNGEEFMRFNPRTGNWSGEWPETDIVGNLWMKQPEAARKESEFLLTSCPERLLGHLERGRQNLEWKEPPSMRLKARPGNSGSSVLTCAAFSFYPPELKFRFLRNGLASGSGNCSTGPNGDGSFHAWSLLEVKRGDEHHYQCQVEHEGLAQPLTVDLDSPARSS
T3 sequence (looked up) 2: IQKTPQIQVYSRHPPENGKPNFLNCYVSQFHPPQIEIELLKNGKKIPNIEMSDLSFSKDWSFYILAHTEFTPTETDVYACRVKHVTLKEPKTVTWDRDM

mouse FcRn [5] = molecular target: T4, mouse FcRn (mouse, UniProt Q61559 22-297; P01887 21-119, limits assumed); assay: SPR, pH 7.4
T4 sequence (looked up) 1: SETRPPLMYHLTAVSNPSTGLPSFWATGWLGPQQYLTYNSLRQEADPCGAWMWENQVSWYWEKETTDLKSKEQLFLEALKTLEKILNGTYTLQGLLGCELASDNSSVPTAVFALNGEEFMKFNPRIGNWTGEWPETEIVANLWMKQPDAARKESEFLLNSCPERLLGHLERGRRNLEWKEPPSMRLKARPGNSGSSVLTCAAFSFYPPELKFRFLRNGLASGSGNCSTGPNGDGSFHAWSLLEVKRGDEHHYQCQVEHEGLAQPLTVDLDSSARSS
T4 sequence (looked up) 2: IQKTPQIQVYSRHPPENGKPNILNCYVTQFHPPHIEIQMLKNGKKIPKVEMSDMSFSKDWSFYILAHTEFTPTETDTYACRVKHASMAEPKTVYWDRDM

cynomolgus monkey FcRn [6] = molecular target: T2, cynomolgus monkey FcRn; assay: SPR, pH 6
[7] = molecular target: T1, Recombinant in-house Human FcRn protein; assay: SPR, pH 6
rat FcRn [8] = molecular target: T3, rat FcRn; assay: SPR, pH 6
mouse FcRn [9] = molecular target: T4, mouse FcRn; assay: SPR, pH 6
[10] = molecular target: T1, Recombinant in-house Human FcRn protein; assay: competitive binding ELISA, pH 6.0, in triplicate; competitor IgG

T1 sequence (P55899 24-297 limits assumed, chain 1 of 2): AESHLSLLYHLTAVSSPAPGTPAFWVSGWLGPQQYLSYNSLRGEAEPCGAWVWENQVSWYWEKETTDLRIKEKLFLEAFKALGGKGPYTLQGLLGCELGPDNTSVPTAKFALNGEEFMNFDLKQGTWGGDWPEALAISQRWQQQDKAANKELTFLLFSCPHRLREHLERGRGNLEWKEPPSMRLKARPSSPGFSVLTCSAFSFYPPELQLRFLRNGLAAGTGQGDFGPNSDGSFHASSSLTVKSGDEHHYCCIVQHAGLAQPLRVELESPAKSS
T1 sequence (P61769 21-119 limits assumed, chain 2 of 2): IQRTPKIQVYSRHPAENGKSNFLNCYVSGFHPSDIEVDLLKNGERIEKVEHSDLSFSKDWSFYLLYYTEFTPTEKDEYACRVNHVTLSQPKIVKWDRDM

Row | Binder | IC50 [1] [µM] | Kd (cynomolgus monkey FcRn [2]) [µM] | Kd [3] [µM] | Kd (rat FcRn [4]) [µM] | Kd (mouse FcRn [5]) [µM] | Kd (cynomolgus monkey FcRn [6]) [µM] | Kd [7] [µM] | Kd (rat FcRn [8]) [µM] | Kd (mouse FcRn [9]) [µM] | IC50 [10] [µM]
1 | Fc Fragment 1 (other, Human IgG1 Fc fragment (EU 221-446) with the named substitutions already in the entry; also called Efgartigimod (Efgart); Efgartigimod without the C-terminal lysine) DKTHTCPPCPAPELLGGPSVFLFPPKPKDTLYITREPEVTCVVVDVSHEDPEVKFNWYVDGVEVHNAKTKPREEQYNSTYRVVSVLTVLHQDWLNGKEYKCKVSNKALPAPIEKTISKAKGQPREPQVYTLPPSRDELTKNQVSLTCLVKGFYPSDIAVEWESNGQPENNYKTTPPVLDSDGSFFLYSKLTVDKSRWQQGNVFSCSVMHEALKFHYTQKSLSLSPG | 0.00482 | 1.37 | 0.239 | 0.0123 | 0.0028 | 0.0397 | 0.0088 | 0.00371 | 0.000269 | 0.00285
2 | Fc Fragment 2 (other, Human IgG1 Fc fragment; substitutions already in the entry; also called Fc195) DKTHTCPPCPAPELLGGPSVFLFPPKPKDTLYITREPEVTCVVVDVSHEDPEVKFNWYVDGVEVHNAKTKPREEQYNSTYRVVSVLTVLHQDWLNGKEYKCKVSNKALPAPIEKTISKAKGQPREPQVYTLPPSRDELTKNQVSLTCLVKGFYPSDIAVEWESNGQPENNYKTTPPVLDSDGSFFLYSKLTVDKSRWQQGNVFSCSVLHEALKFHYTQKSLSLSPG | 0.00409 | 1.54 | 0.259 | 0.0118 | 0.00255 | 0.0362 | 0.00805 | 0.0035 | 0.000182 | 0.00131
3 | Fc Fragment 18 (other, Human IgG1 Fc fragment; substitutions already in the entry) DKTHTCPPCPAPELLGGPSVFLFPPKPKDTLYITREPEVTCVVVDVSHEDPEVKFNWYVDGVEVHNAKTKPREEQYNSTYRVVSVLTVDHQDWLNGKEYKCKVSNKALPAPIEKTISKAKGQPREPQVYTLPPSRDELTKNQVSLTCLVKGFYPSDIAVEWESNGQPENNYKTTPPVLDSDGSFFLYSKLTVDKSRWQQGNVFSCSVLHEALKYHYTQKSLSLSPG |  | 2.11 | 0.262 |  |  | 0.0512 | 0.0587 |  |  | 0.00691
4 | Fc Fragment 15 (other, Human IgG1 Fc fragment; substitutions already in the entry) DKTHTCPPCPAPELLGGPSVFLFPPKPKDTLYITREPEVTCVVVDVSHEDPEVKFNWYVDGVEVHNAKTKPREEQYNSTYRVVSVLTVDHQDWLNGKEYKCKVSNKALPAPIEKTISKAKGQPREPQVYTLPPSRDELTKNQVSLTCLVKGFYPSDIAVEWESNGQPENNYKTTPPVLDSDGSFFLYSKLTVDKSRWQQGNVFSCSVMHEALKFHYTQKSLSLSPG |  | 1.43 | 0.291 |  |  | 0.0608 | 0.0764 |  |  | 0.0303
5 | Fc Fragment 17 (other, Human IgG1 Fc fragment; substitutions already in the entry) DKTHTCPPCPAPELLGGPSVFLFPPKPKDTLYITREPEVTCVVVDVSHEDPEVKFNWYVDGVEVHNAKTKPREEQYNSTYRVVSVLTVDHQDWLNGKEYKCKVSNKALPAPIEKTISKAKGQPREPQVYTLPPSRDELTKNQVSLTCLVKGFYPSDIAVEWESNGQPENNYKTTPPVLDSDGSFFLYSKLTVDKSRWQQGNVFSCSVLHEALKFHYTQKSLSLSPG |  | 2.19 | 0.293 |  |  | 0.0621 | 0.0683 |  |  | 0.0102
6 | Fc Fragment 12 (other, Human IgG1 Fc fragment; substitutions already in the entry) DKTHTCPPCPAPELLGGPSVFLFPPKPKDTLYITREPEVTCVVVDVSHEDPEVKFNWYVDGVEVHNAKTKPREEQYNSTYRVVSVLTVLHQDWLNGKEYKCKVSNKALPAPIEKTISKAKGQPREPQVYTLPPSRDELTKNQVSLTCLVKGFYPSDIAVEWESNGQPENNYKTTPPVLDSDGSFFLYSKLTVDKSRWQQGNVFSCSVMHEALRYHYTQKSLSLSPG | 0.00373 | 0.9 | 0.166 | 0.0173 | 0.00283 | 0.0301 | 0.00715 | 0.00541 | 0.000194 | 0.00141
7 | Fc Fragment 10 (other, Human IgG1 Fc fragment; substitutions already in the entry) DKTHTCPPCPAPELLGGPSVFLFPPKPKDTLYITREPEVTCVVVDVSHEDPEVKFNWYVDGVEVHNAKTKPREEQYNSTYRVVSVLTVLHQDWLNGKEYKCKVSNKALPAPIEKTISKAKGQPREPQVYTLPPSRDELTKNQVSLTCLVKGFYPSDIAVEWESNGQPENNYKTTPPVLDSDGSFFLYSKLTVDKSRWQQGNVFSCSVLHEALKYHYTQKSLSLSPG | 0.00503 | 0.725 | 0.169 | 0.0115 | 0.00153 | 0.0286 | 0.00662 | 0.00349 | 0.000143 | 
8 | Fc Fragment 11 (other, Human IgG1 Fc fragment; substitutions already in the entry) DKTHTCPPCPAPELLGGPSVFLFPPKPKDTLYITREPEVTCVVVDVSHEDPEVKFNWYVDGVEVHNAKTKPREEQYNSTYRVVSVLTVLHQDWLNGKEYKCKVSNKALPAPIEKTISKAKGQPREPQVYTLPPSRDELTKNQVSLTCLVKGFYPSDIAVEWESNGQPENNYKTTPPVLDSDGSFFLYSKLTVDKSRWQQGNVFSCSVLHEALHFHYTQKSLSLSPG | 0.00647 | 1.7 | 0.269 | 0.0147 | 0.00405 | 0.0386 | 0.00841 | 0.0029 | 0.000248 | 0.00151
9 | Fc Fragment 20 (other, Human IgG1 Fc fragment; substitutions already in the entry) DKTHTCPPCPAPELLGGPSVFLFPPKPKDTLYITREPEVTCVVVDVSHEDPEVKFNWYVDGVEVHNAKTKPREEQYNSTYRVVSVLTVDHKDWLNGKEYKCKVSNKALPAPIEKTISKAKGQPREPQVYTLPPSRDELTKNQVSLTCLVKGFYPSDIAVEWESNGQPENNYKTTPPVLDSDGSFFLYSKLTVDKSRWQQGNVFSCSVMHEALKYHYTQKSLSLSPG |  | 1.55 | 0.29 |  |  | 0.372 | 0.0517 |  |  | 0.00518
10 | Fc Fragment 19 (other, Human IgG1 Fc fragment; substitutions already in the entry) DKTHTCPPCPAPELLGGPSVFLFPPKPKDTLYITREPEVTCVVVDVSHEDPEVKFNWYVDGVEVHNAKTKPREEQYNSTYRVVSVLTVDHKDWLNGKEYKCKVSNKALPAPIEKTISKAKGQPREPQVYTLPPSRDELTKNQVSLTCLVKGFYPSDIAVEWESNGQPENNYKTTPPVLDSDGSFFLYSKLTVDKSRWQQGNVFSCSVMHEALKFHYTQKSLSLSPG |  | 1.43 | 0.252 |  |  | 1.25 | 0.0804 |  |  | 0.00798
11 | Fc Fragment 3 (other, Human IgG1 Fc fragment; substitutions already in the entry; also called Fc197) DKTHTCPPCPAPELLGGPSVFLFPPKPKDTLYITREPEVTCVVVDVSHEDPEVKFNWYVDGVEVHNAKTKPREEQYNSTYRVVSVLTVLHQDWLNGKEYKCKVSNKALPAPIEKTISKAKGQPREPQVYTLPPSRDELTKNQVSLTCLVKGFYPSDIAVEWESNGQPENNYKTTPPVLDSDGSFFLYSKLTVDKSRWQQGNVFSCSVMHEALKYHYTQKSLSLSPG | 0.00459 | 0.948 | 0.21 | 0.0149 | 0.00238 | 0.0289 | 0.00674 | 0.00425 | 0.000172 | 0.00077
12 | Fc Fragment 16 (other, Human IgG1 Fc fragment; substitutions already in the entry) DKTHTCPPCPAPELLGGPSVFLFPPKPKDTLYITREPEVTCVVVDVSHEDPEVKFNWYVDGVEVHNAKTKPREEQYNSTYRVVSVLTVDHQDWLNGKEYKCKVSNKALPAPIEKTISKAKGQPREPQVYTLPPSRDELTKNQVSLTCLVKGFYPSDIAVEWESNGQPENNYKTTPPVLDSDGSFFLYSKLTVDKSRWQQGNVFSCSVMHEALKYHYTQKSLSLSPG |  | 1.68 | 0.371 |  |  | 0.0472 |  |  |  | 0.00845
